Among the targets are LC3B (UniProt Q9GZQ8 1-120); 1 (UniProt Q9H0R8 1-117); LC3A (UniProt Q9H492 1-121); GABARAPL2 (UniProt P60520 1-117).
Assay in all cases: FP
Test [1] concerns the target T1, FIP200 Claw domain (residues 1490–1594) (human, UniProt Q8TDY2 1490-1594).
T1 chain: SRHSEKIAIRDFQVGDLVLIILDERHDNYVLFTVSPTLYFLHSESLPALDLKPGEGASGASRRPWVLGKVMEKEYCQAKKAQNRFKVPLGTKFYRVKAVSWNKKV

The next test concerns the target T2, LC3C (UniProt Q9BXW4 1-126).
T2 chain: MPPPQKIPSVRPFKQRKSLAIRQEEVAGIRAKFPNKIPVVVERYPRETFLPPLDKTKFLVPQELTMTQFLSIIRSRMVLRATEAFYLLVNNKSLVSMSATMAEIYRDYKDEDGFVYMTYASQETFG

The next test addresses T3, FIP200 Claw Y1564S (human).
T3 chain: T1 chain with Y75S

The next test addresses T4, FIP200 Claw K1569A (human).
T4 chain: T1 chain with K80A

The target of another test is T5, FIP200 Claw R1573E (human).
T5 chain: T1 chain with R84E

The next test addresses T6, FIP200 Claw F1574Q (human).
T6 chain: T1 chain with F85Q

Numbering of substitutions follows the chain as printed. Square brackets hold non-standard residues; d marks the D form. Ends that are not written are not given here. pS = N[C@@H](COP(=O)(O)O)C(=O)O

For orientation: Kd means a measure of binding affinity in units of concentration. A low value points to tighter binding.

GABARAPL2, sequence (P60520 whole entry): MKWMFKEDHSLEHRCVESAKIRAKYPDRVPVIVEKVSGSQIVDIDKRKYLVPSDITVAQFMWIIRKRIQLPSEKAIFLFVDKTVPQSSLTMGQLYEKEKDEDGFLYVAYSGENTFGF
1, sequence (Q9H0R8 whole entry): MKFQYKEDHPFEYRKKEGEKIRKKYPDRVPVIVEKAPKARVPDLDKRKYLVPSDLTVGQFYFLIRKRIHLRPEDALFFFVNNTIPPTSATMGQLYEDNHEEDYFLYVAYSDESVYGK

As for TASDD[pS]DIVTLEPPK (also: N-terminal FITC in fluorescence polarisation assay only) [phospho-CCPG1 FIR2 synthetic peptide (p-CCPG1 FIR2)], the equilibrium dissociation constant (Kd) was 0.72 µM in test [1]; 20.6 µM with LC3B; 15.3 µM with 1; 15.3 µM with LC3A; 34.5 µM in the test with GABARAPL2; 11 µM in the test with LC3C.
For the molecule TASDDSDIVTLEPPK (also: N-terminal FITC only in fluorescence polarisation assay form) [CCPG1 FIR2 synthetic peptide (residues 99–113)], the Kd in [1] was 12.3 µM; with LC3B, 40.7 µM; with 1, 37.3 µM; with LC3A it was 37.3 µM; with GABARAPL2 it was 123 µM; in the test with LC3C it was 39.8 µM.
Regarding TASDDSDIVTLEPPK (domain or fragment) [CCPG1 FIR2 (residues 99–113), recombinant], the Kd is 79.5 µM in the test with FIP200 Claw Y1564S, 105 µM with FIP200 Claw K1569A, 138 µM in the test with FIP200 Claw R1573E and 120 µM with FIP200 Claw F1574Q.

For the origin of these results see publication PMC7946963 (2021).
